Data published in patent publication CN113564213A.

Legend:
[1] = biological target: 增强型荧光蛋白eGFP (eGFP的A206K突变体, mEGFP); assay: bead capture from 1 mL eGFP IVTT liquid, beads in excess, 1 h; fluorescence (RFU) of IVTT supernatant against flow-through
[2] = biological target: 增强型荧光蛋白eGFP (eGFP的A206K突变体, mEGFP); assay: bead capture from 2 mL eGFP IVTT liquid, eGFP in excess, 1 h; fluorescence (RFU) of Total against Flow-through

B1: antiEGFP-mScarlet-Tamvavidin2融合蛋白 (VHH, part only; not given: mScarlet and Tamavidin2 parts, not shown: large carriers)
chain, part: MAQVQLVESGGALVQPGGSLRLSCAASGFPVNRYSMRWYRQAPGKEREWVAGMSSAGDRSSYEDSVKGRFTISRDDARNTVYLQMNSLKPEDTAVYYCNVNVGFEYWGQGTQVTVSS
A 结合效率 [1] of 98.2% and a 载量 (每毫升antiEGFP磁珠结合的eGFP蛋白的质量) [2] of 17.7 mg/mL were found for B1 in this work.
